Here are results for two molecules from publication PMC10864350, “Phosphorylation-dependent deubiquitinase OTUD3 regulates YY1 stability and promotes colorectal cancer progression” (Cell Death & Disease, 2024).

In one test the target is YY1 (UniProt P25490). The experiment in a line: co-IP. The conditions noted are these: reference: HA-OTUD3 wild type; sites S326.
Test [1] addresses T1, Flag-tagged YY1 (Yin Yang 1), full length, wild type (UniProt P25490 1-414).
T1 construct: Yin Yang 1 (YY1), zinc finger transcription factor, full-length wild type cloned into pCDNA3.1-CMV-Flag-C; The vector name pCDNA3.1-CMV-Flag-C may mean a C-terminal tag; also called Flag-YY1; YY1-WT; source: SW480, transfected, in lysate
The test is described as follows: pull-down; GST or GST-OTUD3 (E. coli) incubated overnight at 4 °C with purified Flag-YY1 or Myc-PLK1 from HEK-293T; Glutathione-Sepharose 4B beads; immunoblot with anti-Flag or anti-Myc. The conditions noted are these: both partners purified. Background: In western blotting, separated proteins are transferred to a membrane and probed.

Test [2] has as its target T2, Myc-tagged PLK1 (wild-type) (UniProt P53350 1-603).
T2 construct: Polo-like kinase 1 (PLK1), wild type, cloned into pCDNA3.1-CMV-Myc-C; The vector name pCDNA3.1-CMV-Myc-C may mean a C-terminal tag; also called Myc-PLK1; source: SW480, transfected, in lysate
The test is described as above. Conditions: both partners purified.

T1 sequence (P25490 whole entry): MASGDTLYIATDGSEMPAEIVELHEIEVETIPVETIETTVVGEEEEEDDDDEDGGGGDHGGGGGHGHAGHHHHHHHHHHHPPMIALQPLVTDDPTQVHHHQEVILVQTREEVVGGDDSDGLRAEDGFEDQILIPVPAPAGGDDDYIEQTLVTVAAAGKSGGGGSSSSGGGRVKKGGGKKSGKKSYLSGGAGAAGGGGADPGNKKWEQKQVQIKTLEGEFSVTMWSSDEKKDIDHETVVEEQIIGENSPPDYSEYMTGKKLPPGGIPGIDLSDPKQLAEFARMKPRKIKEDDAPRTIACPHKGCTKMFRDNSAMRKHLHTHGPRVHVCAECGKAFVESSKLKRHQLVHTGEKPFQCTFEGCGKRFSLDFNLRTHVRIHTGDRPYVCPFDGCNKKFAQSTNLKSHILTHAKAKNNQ
T2 sequence (P53350 whole entry): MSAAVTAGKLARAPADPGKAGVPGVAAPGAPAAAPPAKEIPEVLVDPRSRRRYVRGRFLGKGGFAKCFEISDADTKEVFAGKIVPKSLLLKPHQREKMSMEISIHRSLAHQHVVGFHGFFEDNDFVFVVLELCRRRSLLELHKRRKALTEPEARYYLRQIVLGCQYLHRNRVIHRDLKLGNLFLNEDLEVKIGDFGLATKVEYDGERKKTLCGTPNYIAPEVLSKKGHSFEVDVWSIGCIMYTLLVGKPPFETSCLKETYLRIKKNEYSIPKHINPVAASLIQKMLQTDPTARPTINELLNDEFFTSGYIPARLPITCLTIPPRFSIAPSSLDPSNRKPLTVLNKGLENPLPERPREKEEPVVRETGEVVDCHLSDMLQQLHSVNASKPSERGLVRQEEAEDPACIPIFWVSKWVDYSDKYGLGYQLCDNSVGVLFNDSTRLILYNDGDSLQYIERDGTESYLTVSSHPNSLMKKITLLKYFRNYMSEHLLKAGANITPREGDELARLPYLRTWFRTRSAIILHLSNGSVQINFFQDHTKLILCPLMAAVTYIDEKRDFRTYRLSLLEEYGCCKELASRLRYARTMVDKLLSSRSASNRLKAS

On to “OTUD3 (from UniProt Q5T2D3) HA-OTUD3 S326A”, for which the “binding against the reference” value with YY1 is “weaker”.

B1: GST-OTUD3 recombinant protein (enzyme, human, UniProt Q5T2D3 1-398, looked up)
chain: MSRKQAAKSRPGSGSRKAEAERKRDERAARRALAKERRNRPESGGGGGCEEEFVSFANQLQALGLKLREVPGDGNCLFRALGDQLEGHSRNHLKHRQETVDYMIKQREDFEPFVEDDIPFEKHVASLAKPGTFAGNDAIVAFARNHQLNVVIHQLNAPLWQIRGTEKSSVRELHIAYRYGEHYDSVRRINDNSEAPAHLQTDFQMLHQDESNKREKIKTKGMDSEDDLRDEVEDAVQKVCNATGCSDFNLIVQNLEAENYNIESAIIAVLRMNQGKRNNAEENLEPSGRVLKQCGPLWEEGGSGARIFGNQGLNEGRTENNKAQASPSEENKANKNQLAKVTNKQRREQQWMEKKKRQEERHRHKALESRGSHRDNNRSEAEANTQVTLVKTFAALNI
notes: OTUD3 cloned into the pGEX-6P-1 vector; also called GST-tagged OTUD3; GST-labeled OTUD3; source: Escherichia coli BL21 (DE3), purified (Glutathione Sepharose 4B beads)
Regarding B1, the binding result in test [1] and in test [2] was “binds” each time.
